Consider four molecules from patent US20050202008A1 (Genentech, published 2005).

The labels stand for the following.
T1: DR4 immunoadhesin (human, UniProt O00220 24-239, limits assumed)
T1 construct: extracellular domain; also called DR4-IgG; not shown: hinge and Fc portion of human IgG; made as described for TNFR1 in Ashkenazi et al. 1991 (IgG1 from)
T1 sequence (looked up): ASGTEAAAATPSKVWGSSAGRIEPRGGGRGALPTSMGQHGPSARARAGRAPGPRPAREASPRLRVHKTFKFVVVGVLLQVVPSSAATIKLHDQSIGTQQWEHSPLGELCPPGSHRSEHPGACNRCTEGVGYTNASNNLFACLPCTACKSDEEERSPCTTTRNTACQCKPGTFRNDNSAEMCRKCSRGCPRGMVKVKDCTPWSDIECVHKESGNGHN

T2: TNFR1 immunoadhesin (human, UniProt P19438 30-211, limits assumed)
T2 construct: extracellular domain; also called TNFR1-IgG; TNFR 1-IgG; not shown: hinge and Fc portion of human IgG
T2 sequence (looked up): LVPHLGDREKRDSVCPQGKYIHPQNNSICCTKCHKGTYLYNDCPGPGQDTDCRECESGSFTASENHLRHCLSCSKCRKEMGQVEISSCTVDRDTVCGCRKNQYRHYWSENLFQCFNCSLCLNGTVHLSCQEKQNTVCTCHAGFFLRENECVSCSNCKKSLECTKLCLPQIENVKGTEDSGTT

T3: TNFR2 immunoadhesin (human, UniProt P20333 23-257, limits assumed)
T3 construct: extracellular domain; also called TNFR2-IgG; not shown: hinge and Fc portion of human IgG; made as described for TNFR1 in Ashkenazi et al. 1991 (IgG1 from)
T3 sequence (looked up): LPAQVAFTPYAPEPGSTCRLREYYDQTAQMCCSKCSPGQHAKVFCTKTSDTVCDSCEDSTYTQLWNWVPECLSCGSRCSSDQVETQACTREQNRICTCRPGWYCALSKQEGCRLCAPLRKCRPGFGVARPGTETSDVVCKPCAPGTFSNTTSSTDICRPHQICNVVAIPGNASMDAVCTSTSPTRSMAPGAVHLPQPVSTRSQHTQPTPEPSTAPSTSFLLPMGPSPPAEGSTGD

T4: Apo-3 immunoadhesin (human, UniProt Q93038 25-199)
T4 construct: extracellular domain; also called Apo-3-IgG; DR3; not shown: hinge and Fc portion of human IgG; made as described for TNFR1 in Ashkenazi et al. 1991 (IgG1 from)
T4 sequence (looked up): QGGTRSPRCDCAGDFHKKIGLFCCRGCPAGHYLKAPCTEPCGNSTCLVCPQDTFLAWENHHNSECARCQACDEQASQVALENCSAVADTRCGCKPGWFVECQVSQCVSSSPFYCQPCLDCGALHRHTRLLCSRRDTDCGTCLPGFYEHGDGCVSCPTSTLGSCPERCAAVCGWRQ

B1: PRO364-IgG (soluble immunoglobulin fusion protein of the PRO364 extracellular domain) (Fc fusion)
chain: QRPTGGPGCGPGRLLLGTGTDARCCRVHTTRCCRDYPGEECCSEWDCMCVQPEFHCGDPCCTTCRHHPCPPGQGVQSQGKFSFGFQCIDCASGTFSGGHEGHCKPWTDCTQFGFLTVFPGNKTHNAVCVPGSPPAE
notes: Expressed in insect cells with Baculovirus; also called PRO364 immunoadhesin; PRO364 ECD C-terminus IgG-Fc tagged form; not shown: IgG-Fc at the C-terminus
B2: soluble PRO175 polypeptide (PRO175 ECD, E. coli, Met-Gly-His10-enterokinase-site tagged) (ligand)
chain: MGHHHHHHHHHHSSGHIDDDDKHMETAKEPCMAKFGPLPSKWQMASSEPPCVNKVSDWKLEILQNGLYLIYGQVAPNANYNDVAPFEVRLYKNKDMIQTLTNKSKIQNVGGTYELHVGDTIDLIFNSEHQVLKNNTYWGIILLANPQFIS
modifications: labeled with 125I (residues not stated)
notes: also called soluble PRO175 ECD molecule; radioiodinated soluble PRO175 polypeptide
B3: full-length PRO175 polypeptide on cells (ligand)
chain: MCLSHLENMPLSHSRTQGAQRSSWKLWLFCSIVMLLFLCSFSWLIFIFLQLETAKEPCMAKFGPLPSKWQMASSEPPCVNKVSDWKLEILQNGLYLIYGQVAPNANYNDVAPFEVRLYKNKDMIQTLTNKSKIQNVGGTYELHVGDTIDLIFNSEHQVLKNNTYWGIILLANPQFIS
notes: Human 293 cells were transiently transfected with full-length PRO175, co-transfected with CD4 for gating; also called PRO175 on transfected 293 cells; PRO175 on HUVEC
B4: CD95 immunoadhesin (Fc fusion, UniProt P25445 26-173, looked up)
chain: QVTDINSKGLELRKTVTTVETQNLEGLHHDGQFCHKPCPPGERKARDCTVNGDEPDCVPCQEGKEYTDKAHFSSKCRRCRLCDEGHGLEVEINCTRTQNTKCRCKPNFFCNSTVCEHCDPCTKCEHGIIKECTLTSNTKCKEEGSRSN
notes: extracellular domain; also called CD95-IgG; Fas-IgG; not shown: hinge and Fc portion of human IgG; made as described for TNFR1 in Ashkenazi et al. 1991 (IgG1 from)

In experiment [1] the target is B3. Put plainly: FACS on 293 cells transiently transfected with full-length PRO175. Here is the method: In another assay, human 293 cells were transiently transfected with full-length PRO175 and the ability of receptor immunoadhesin constructs for PRO364, TNFR1, HVEM, and DcR1 to bind to those transfected cells was determined by FACS analysis. The 293 cells were maintained in high glucose DMEM media supplemented with 10% fetal bovine serum (FBS), 2 mM glutamine, 100 microgram/ml penicillin, and 100 microgram/ml streptomycin. The transfected cells ([…]) were incubated for 60 minutes at 4° C. in 200 microliters 2% FBS/PBS with 1 microgram of the respective receptor or ligand immunoadhesin. The cells were then washed with 2% FBS/PBS, stained with R-phycoerythrin-conjugated goat anti-human antibody (Jackson Immunoresearch, West Grove, Pa.). Next, the cells were analyzed by FACS. To test the binding of the respective immunoadhesins to the transiently transfected cells, an expression vector (pRK5-CD4; Smith et al., Science, 328:1704-1707 (1987)) for CD4 was co-transfected with PRO175 expression vector (see above). FITC-conjugated anti-CD4 (Pharmingen, San Diego, Calif.) was then used to identify and gate the transfected cell population in the FACS analysis.

For the experiment “CD95 immunoadhesin”, the target named is B4. Put plainly: co-precipitation with protein A-sepharose, SDS-PAGE, autoradiography. Here is the method:
(§1) The soluble PRO175 ECD molecule was abeled with ¹²⁵I, for testing its ability to interact with the PRO364 immunoadhesin. For comparison, immunoadhesin constructs were also made of the following TNF receptor family members: CD95, DR4, DR5, TNFR1, TNFR2, and Apo-3. CD95, DR4, DR5, TNFR1, TNFR2, and Apo-3 immunoadhesins were prepared by fusing each receptor's ECD to the hinge and Fc portion of human IgG, as described previously for TNFR1 [Ashkenazi et al., Proc. Natl. Acad. Sci., 88:10535-10539 (1.991)]. The respective TNF receptor family members are described (and relevant references cited) in the Background of the Invention section.
(§2) For the co-precipitation assay, each immunoadhesin (5 microgram) was incubated with ¹²⁵I-labeled soluble PRO175 polypeptide (I microgram) for 1 hour at 24° C., followed by protein A-sepharose for 30 minutes on ice. The reaction mixtures were spun down and washed several times in PBS, boiled in SDS-PAGE buffer containing 20 mM dithiothreitol and then resolved by SDS-PAGE and autoradiography.

In a further experiment the target is T1, DR4 immunoadhesin. The experiment is described as above. Here is the method: as §1, §2
The target in a further experiment is T5, DR5 immunoadhesin (human, UniProt O14763 56-210, limits assumed).
T5 construct: extracellular domain; also called DR5-IgG; Apo-2; not shown: hinge and Fc portion of human IgG; made as described for TNFR1 in Ashkenazi et al. 1991 (IgG1 from)
The experiment is described as above. Here is the method:
as §1, §2

Experiment [2] addresses T2, TNFR1 immunoadhesin. The description is as above. Here is the method:
as §1, §2

Another experiment deals with T3, TNFR2 immunoadhesin. Described as above. Here is the method: as §1, §2
Another experiment deals with T4, Apo-3 immunoadhesin. The experiment is described as above. Here is the method:
as §1, §2

Experiment [3] has as its target T2, TNFR1 immunoadhesin. The experiment is described as follows: FACS on HUVEC (endogenous PRO175). Here is the method: (§3) The PRO175 polypeptide was identified in a human umbilical vein endothelial cell (HUVEC) library, and the PRO175 polypeptide transcripts are readily detectable in HUVEC by RT-PCR (data not shown). […] HUVEC were purchased from Cell Systems (Kirkland, Wash.) and grown in a 50:50 mix of Ham=s F 12 and Low Glucose DMEM media containing 10% fetal bovine serum, 2 mM L-glutamine, 10 mM Hepes, and 10 ng/ml basic FGF. Cells were FACS sorted with PBS, PRO364-IgG, TNFR1-IgG or Fas-IgG as a primary antibody and goat anti-human F(ab=)₂ conjugated to phycoerythrin (CalTag, Burlingame, Calif.).

Experiment [4] concerns the target B3. Put plainly: FACS on HUVEC (endogenous PRO175). Here is the method:
as §3

Take B1: the binding result in experiment [1] was “binds”.
Consider B2, for which the binding result with CD95 immunoadhesin, with DR4 immunoadhesin, in the experiment with DR5 immunoadhesin, with TNFR1 immunoadhesin [2], with TNFR2 immunoadhesin and with Apo-3 immunoadhesin was “no binding” in each case.
For the molecule B3, the binding result in the experiment with TNFR1 immunoadhesin [3] was “no binding”.
Consider B4, for which the binding result in experiment [4] is reported as “no binding”.
